Assay results as given in US20180172709A1.

Target: recombinant Syrian golden hamster proteinase K-sensitive prion protein (residues 23-231) (Syrian golden hamster) (UniProt Q60468)
Assay: cell-based or functional assay

For “hamster proteinase K resistant prion protein (263K scrapie strain), purified from hamster brains or (from UniProt P04273 23-231)”, the amount of PrP^Sc seed detected, 4-hour QUIC at 65° C. was 100 fg, the amount of PrP^Sc seed detected, 8-hour QUIC at 55° C. was 10 fg and the amount of PrP^Sc seed detected, triplicate 18-hour QUIC at 55° C. was 1 fg. The amount of PrP^Sc seed frequently positive, first 48-hour QUIC round was 25 to 50 ag and the amount of PrP^Sc seed positive in one sample, second serial QUIC round was 10 ag.
